Measurements from US20050143472A1, “Novel treatment for pathologies associated with oxidative damage” (priority 2002, published 2005).

Substrate: NCCCNCCCCNCCCN
Test: purified protein, by the assay type
Conditions: other: apparent value, air-saturated 50 mM KH2PO4/KOH buffer pH 7.6, [O2] 237 μM

B1: mPAO (Mus musculus) (protein)
chain: MAFPGPRVLVVGSGIAGLGAAQKLCSHRAAPHLRVLEATASAGGRIRSERCFGGVVELGAHWIHGPSQDNPVFQLAAEFGLLGEKELSEENQLVDTGGHVALPSMIWSSSGTSVSLELMTEMARLFYGLIERTREFLNESETPMASVGEFLKKEISQQVASWTEDDEDTRKRKLAILNTFFNIKCCVSGTHSMDLVALAPFGEYTVLPGLDCILAGGYQGLTDRILASLPKDTVAFDKPVKTIHWNGSFQEAAFPGETFPVLVECEDGARLPAHHVIVTVPLGFSKEHQDTFFEPPLPAKKAEAIKKLGFGTNNKIFLEFEEPFWEPDCQFIQVVWEDTSPLQDTALSLQDTWFKKLIGFLVQPSFESSHVLCGFIAGLESEFMETLSDEEVLLSLTQVLRRVTGNPQLPAAKSVLSSRWHSAPYTRGSYSYVAVGSTGDDLDLMAQPLPADGTGTQLQVLFAGEATHRTFYSTTHGALLSGWREADRLIGLWDSQAEQSRPRL
For B1, the kcat was 0.175 s⁻¹ and the kcat/Km was 247 M⁻¹ s⁻¹.
